Data on one substance can be found in patent publication US20250332230A1.

Assay [1] has as its target Human Alkaline Phosphatase/ALPI Protein (His Tag) (Sino Biological Cat. No. 13225-H08H) (human) (UniProt P09923). Nature of the assay: sandwich ECL (MSD), capture AbD54140ad; LC01, HIAP nominal 1.500 ng/mL.
Assay [2] has the same target. Nature of the assay: sandwich ECL (MSD), capture AbD54140ad; ULOQ02, HIAP nominal 256.0 ng/mL.
The target is the same in assay [3]. Nature of the assay: sandwich ECL (MSD), capture AbD54140ad; HC02, HIAP nominal 192.0 ng/mL.
Assay [4] shares this target. Nature of the assay: sandwich ECL (MSD), capture AbD54140ad; MC02, HIAP nominal 12.00 ng/mL.
Assay [5] has the same target. Nature of the assay: sandwich ECL (MSD), capture AbD54140ad; ST08, HIAP nominal 2.000 ng/mL.
The target is the same in assay [6]. Nature of the assay: sandwich ECL (MSD), capture AbD54140ad; ST06, HIAP nominal 8.000 ng/mL.
For assay [7] the target is unchanged. Nature of the assay: sandwich ECL (MSD), capture AbD54140ad; LC02, HIAP nominal 1.500 ng/mL.
Assay [8] has the same target. Nature of the assay: sandwich ECL (MSD), capture AbD54140ad; ST03, HIAP nominal 64.00 ng/mL.
For assay [9] the target is unchanged. Nature of the assay: sandwich ECL (MSD), capture AbD54140ad; ST02, HIAP nominal 128.0 ng/mL.
The target is the same in assay [10]. Nature of the assay: sandwich ECL (MSD), capture AbD54140ad; LLOQ01, HIAP nominal 0.5000 ng/mL.
For assay [11] the target is unchanged. Nature of the assay: sandwich ECL (MSD), capture AbD54140ad; LLOQ02, HIAP nominal 0.5000 ng/mL.
Assay [12] has the same target. Nature of the assay: sandwich ECL (MSD), capture AbD54140ad; ST05, HIAP nominal 16.00 ng/mL.
For assay [13] the target is unchanged. Nature of the assay: sandwich ECL (MSD), capture AbD54140ad; ULOQ01, HIAP nominal 256.0 ng/mL.
For assay [14] the target is unchanged. Nature of the assay: sandwich ECL (MSD), capture AbD54140ad; MC01, HIAP nominal 12.00 ng/mL.
The target is the same in assay [15]. Nature of the assay: sandwich ECL (MSD), capture AbD54140ad; ST10, HIAP nominal 0.5000 ng/mL.
Assay [16] has the same target. Nature of the assay: sandwich ECL (MSD), capture AbD54140ad; ST07, HIAP nominal 4.000 ng/mL.
The target is the same in assay [17]. Nature of the assay: sandwich ECL (MSD), capture AbD54140ad; ST04, HIAP nominal 32.00 ng/mL.
For assay [18] the target is unchanged. Nature of the assay: sandwich ECL (MSD), capture AbD54140ad; ST09, HIAP nominal 1.000 ng/mL.
Assay [19] shares this target. Nature of the assay: sandwich ECL (MSD), capture AbD54140ad; ST01, HIAP nominal 256.0 ng/mL.
The target is the same in assay [20]. Nature of the assay: sandwich ECL (MSD), capture AbD54140ad; HC01, HIAP nominal 192.0 ng/mL.

Sequence of UniProt P09923 (P09923 20-503 limits assumed): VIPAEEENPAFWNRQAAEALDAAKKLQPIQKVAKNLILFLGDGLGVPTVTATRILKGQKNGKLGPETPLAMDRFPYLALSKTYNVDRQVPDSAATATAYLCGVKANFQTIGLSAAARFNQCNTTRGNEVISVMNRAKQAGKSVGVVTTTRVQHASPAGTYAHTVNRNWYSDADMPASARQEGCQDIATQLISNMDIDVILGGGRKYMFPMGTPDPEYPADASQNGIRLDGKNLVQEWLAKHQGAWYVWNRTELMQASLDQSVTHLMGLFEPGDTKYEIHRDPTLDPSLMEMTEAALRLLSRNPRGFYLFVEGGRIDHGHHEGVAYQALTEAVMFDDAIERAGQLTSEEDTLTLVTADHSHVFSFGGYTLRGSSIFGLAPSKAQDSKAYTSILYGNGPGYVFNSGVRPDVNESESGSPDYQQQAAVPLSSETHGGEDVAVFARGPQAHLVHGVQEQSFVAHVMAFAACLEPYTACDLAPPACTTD

Turning to “sulfo-tagged anti-HIAP monoclonal antibody AbD54130ad from BioRad”, the Instrument Response came out at 9110 in assay [1]; 528000 in assay [2]; 456000 in assay [3]; 68900 in [4]; 13000 in assay [5]; 54400 in assay [6]. The Instrument Response in [7] came to 9430; in assay [8] it was 301000; in [9] it was 416000; in [10] it was 3360; in assay [11], 3260; in assay [12] it was 101000. In addition, the Instrument Response came out at 508000 in assay [13]; 64000 in assay [14]; 3760 in assay [15]; 27300 in assay [16]; 186000 in assay [17]; 7040 in [18]. Also, the Instrument Response in assay [19] worked out at 504000; in [20], 444000.
